What was measured:
PTHR1 = assay: Flow cytometry binding to HEK293 expressing human PTHR1; details: flow cytometry MFI, VHH-Alexafluor647, 1 h on ice; no plateau, estimate
From the text: Cells were pelleted by centrifugation and washed with PBS prior to analysis by flow cytometry (BD Accuri C6).
Supplementary Figure 4. […] Cells
(§1) (1 picture or pasted object on this page, not shown here)

PTHR1_6E = assay: Flow cytometry binding of VHH-Alexafluor647 to HEK293 expressing PTHR1_6E; set-up: species or system human; details: flow cytometry MFI, VHH-Alexafluor647, 1 h on ice
Description: (§2) Suspensions of cells in PBS were stained for 1 h on ice in the presence of indicated concentrations of VHH probes functionalized with Alexafluor647. Cells were pelleted by centrifugation and washed with PBS prior to analysis by flow cytometry (BD Accuri C6). To select intact cells gating was performed on forward scatter/side scatter profiles for analysis (see Supplementary Fig. 4 for an example of the gating strategy). Data were analyzed using FlowJo version 7.6. The median fluorescent intensity (MFI) of stained cells was used to generate VHH binding dose response curves (Supplementary Fig. 4).
Supplementary Figure 4. Assessment of VHH binding to PTHR1 variants by flow cytometry. Cells dislodged from tissue culture plates using trypsinization were incubated with varied concentrations of VHHs sortagged with AlexaFluor647 on ice for 1 h. Cells were centrifuged, washed, and analyzed by flow cytometry via gating of intact cells (live gate) based on forward scatter/side scatter profiles (panel a). (b) Data points represent median fluorescent intensity values ( individual data points shown, n = 2 independent replicates per condition). Connecting curves are the result of fitting a sigmoidal dose - response model to the data points. Precise estimates for VHH PTHR binding cannot be provided since the […]
as §1

PTHR1GFP = target: T1, PTHR1GFP (Homo sapiens, UniProt Q03431); assay: Flow cytometry binding of VHH-Alexafluor647 to HEK293 expressing PTHR1GFP; details: flow cytometry MFI, VHH-Alexafluor647, 1 h on ice; no plateau, estimate
T1 sequence (Q03431 27-593): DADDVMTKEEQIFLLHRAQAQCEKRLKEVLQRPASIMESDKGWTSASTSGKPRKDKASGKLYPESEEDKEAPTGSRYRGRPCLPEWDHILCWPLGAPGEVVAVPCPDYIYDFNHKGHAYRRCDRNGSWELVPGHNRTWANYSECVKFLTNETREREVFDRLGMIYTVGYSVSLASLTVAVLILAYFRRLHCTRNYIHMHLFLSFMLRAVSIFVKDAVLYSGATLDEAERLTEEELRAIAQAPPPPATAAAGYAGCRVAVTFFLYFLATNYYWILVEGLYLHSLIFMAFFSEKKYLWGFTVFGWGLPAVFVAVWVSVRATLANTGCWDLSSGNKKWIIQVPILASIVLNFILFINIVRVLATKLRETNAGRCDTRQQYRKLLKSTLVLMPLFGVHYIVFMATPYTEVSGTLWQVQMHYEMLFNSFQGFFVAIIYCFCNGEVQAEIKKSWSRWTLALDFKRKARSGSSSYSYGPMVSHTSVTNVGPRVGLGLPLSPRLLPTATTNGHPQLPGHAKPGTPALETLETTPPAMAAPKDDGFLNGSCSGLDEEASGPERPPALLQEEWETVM
Description: as §2
Supplementary Figure 1. […] HEK293 cell lines in suspension were incubated on ice with 100 nM VHH sortagged with Alexafluor647, pelleted by centrifugation, washed and analyzed. […]
PTHR1GFP. This weak staining is likely related to the inability of VHHGFP to tightly bind the pH-sensitive GFP variant known as pHluorin2 engrafted into the receptor(ref. 19, main text). c) HEK293 cells stably expressing PTHR1-GFP were treated with varied doses of the indicated peptides or conjugates and activation was assessed by measuring luminescence from a cAMP-activated luciferase variant. […]
Supplementary Figure 4. […] Cells were centrifuged, washed, and analyzed by flow cytometry via gating of intact cells (live gate) based on forward scatter/side scatter profiles (panel a). […]

rat PTHR1 (rPTHR1) = assay: Flow cytometry binding of VHH-Alexafluor647 to HEK293 expressing rat PTHR1; details: 100 nM VHH-Alexafluor647, on ice
Description: (§3) Fig. 3 Binding of VHHs to HEK293 cell lines stably transfected with PTHRs. a Analysis of VHH binding to PTHR1, PTHR2 and variants by flow cytometry. HEK293 cell lines in suspension were incubated on ice with 100 nM VHH sortagged with Alexafluor647, pelleted by centrifugation, washed and analyzed. Data for PTHR1-GFP is found in Supplementary Fig. 1. b Analysis of VHH binding with microscopy. Adherent HEK293 cells expressing human PTHR1 were stained on ice with 50 nM VHHPTHR-tetramethylrhodamine (TMR, red) and 30 nM PTH(1-20)-fluorescein (FAM, green) for 30 min. Following staining, cells were washed and treated with fixative in preparation for image acquisition either immediately after staining (0 min) or following a 15-min incubation in medium at room temperature (15 min). Nuclei (blue) were stained with DAPI. The scale bar (20 μm) is at the bottom left image and is applicable to each image in this panel. This experiment was repeated twice with similar results.
(§4) Suspensions of cells in PBS were stained for 1 h on ice in the presence of indicated concentrations of VHH probes functionalized with Alexafluor647. Cells were pelleted by centrifugation and washed with PBS prior to analysis by flow cytometry (BD Accuri C6). […] Data were analyzed using FlowJo version 7.6. […]

PTHR2 = assay: Flow cytometry binding of VHH-Alexafluor647 to HEK293 expressing PTHR2; set-up: species or system human; details: 100 nM VHH-Alexafluor647, on ice
Description: as §3, §4

B1: VHHPTHR: nanobody that recognizes PTHR1 itself, sequence from the literature (named 22A3) (antibody, V domains shown)
VH: EVQLVESGGGLVQAGGSLRLSCAASGNIFANNIMGWYRQPPGKEREFVAHVSHDGDSMYAVSVKGRFAISRKDATNLYLQMNSLKPEDTAIYFCRLLNIPTQGRMEGFWGQGTQVTVSS
PTHR1
  half-maximal staining concentration: 100 to 200 nM
PTHR1_6E
  half-maximal staining concentration: 100 to 200 nM
PTHR1GFP
  half-maximal staining concentration: 100 to 200 nM
Rat PTHR1 (rPTHR1)
  staining of cells: bound
PTHR2
  staining of cells: binds to PTHR1 but not PTHR2
